In paper PMC3815026, “Serglycin Is Implicated in the Promotion of Aggressive Phenotype of Breast Cancer Cells” (PLoS ONE, 2013):

How the values were obtained:
C1q = target: T1, C1q (UniProt P02745 23-245; P02746 28-253; P02747 29-245); test: ELISA; solid phase binding assay: microtiter plates coated with 5 µg/ml serglycin (as GAG content), blocked with 1% BSA; C1q or MBL added at increasing concentrations in 50 mM Hepes pH 7.4, 150 mM NaCl, 2 mM CaCl2, 1 h at RT; bound protein detected with antibodies; KD from the slope of a Scatchard-type plot; details: both partners purified
T1 construct: complement C1q subcomponent subunit A; complement C1q subcomponent subunit B; complement C1q subcomponent subunit C; also called complement component C1q; purified C1q; source: bought: Sigma-Aldrich; copies: + +

mannose-binding lectin = target: T2, mannose-binding lectin (UniProt P11226 21-248); test: as above; details: both partners purified
T2 construct: Neither the species nor the oligomeric state is stated; Human MBL is surmised; also called MBL; source: bought: Statens Serum Institute (Denmark)
T2 sequence (P11226 21-248): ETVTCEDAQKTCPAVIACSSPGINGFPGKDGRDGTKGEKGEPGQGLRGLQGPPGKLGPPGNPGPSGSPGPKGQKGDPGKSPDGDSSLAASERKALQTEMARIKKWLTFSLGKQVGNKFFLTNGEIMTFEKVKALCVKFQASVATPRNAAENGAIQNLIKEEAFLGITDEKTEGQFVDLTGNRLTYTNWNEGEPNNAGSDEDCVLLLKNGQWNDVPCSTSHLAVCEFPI

T1 sequence (P02745 23-245, chain 1 of 3): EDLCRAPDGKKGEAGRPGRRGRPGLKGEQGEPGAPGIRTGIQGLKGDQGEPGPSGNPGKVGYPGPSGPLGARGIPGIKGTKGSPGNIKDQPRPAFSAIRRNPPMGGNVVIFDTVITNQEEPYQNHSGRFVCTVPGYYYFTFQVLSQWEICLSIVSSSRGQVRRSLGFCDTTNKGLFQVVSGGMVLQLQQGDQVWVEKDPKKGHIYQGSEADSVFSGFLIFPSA
T1 sequence (P02746 28-253, chain 2 of 3): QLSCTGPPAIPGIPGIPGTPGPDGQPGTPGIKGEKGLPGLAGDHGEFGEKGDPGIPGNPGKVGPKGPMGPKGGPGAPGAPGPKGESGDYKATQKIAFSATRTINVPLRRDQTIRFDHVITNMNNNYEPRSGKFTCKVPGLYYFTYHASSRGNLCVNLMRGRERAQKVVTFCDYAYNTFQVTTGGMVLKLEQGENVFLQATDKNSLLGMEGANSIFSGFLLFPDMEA
T1 sequence (P02747 29-245, chain 3 of 3): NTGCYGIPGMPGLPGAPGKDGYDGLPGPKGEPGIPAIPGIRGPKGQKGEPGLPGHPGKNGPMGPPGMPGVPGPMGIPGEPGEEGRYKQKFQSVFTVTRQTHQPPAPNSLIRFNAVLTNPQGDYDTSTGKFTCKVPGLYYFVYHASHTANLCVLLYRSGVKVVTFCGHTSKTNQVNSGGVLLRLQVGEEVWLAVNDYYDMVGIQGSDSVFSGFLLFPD

B1: Serglycin isolated from conditioned medium of MDA-MB-231 breast cancer cells (total glycanated serglycin) (natural protein, human (endogenous in MDA-MB-231), UniProt P10124 28-158, looked up)
chain: YPTRRARYQWVRCNPDSNSANCLEEKGPMFELLPGESNKIPRLRTDLFPKTRIQDLNRIFPLSEDYSGSGFGSGSGSGSGSGSGFLTEMEQDYQLVDESDAFHDNLRSLDRNLPSDSQDLGQHGLEEDFML
modifications: chondroitin sulfate side chains (4-sulfated 87%, 6-sulfated 10%, non-sulfated 3% disaccharides)
notes: serglycin core protein, secreted proteoglycan of ~250-300 kDa, core protein seen at ~28 kDa after chondroitinase ABC; Proteoglycan: GAG content about 94.5% and core protein about 5.5% of the total mass; also called SG; breast cancer-derived serglycin; source: endogenous, secreted by MDA-MB-231 cells; purified from culture medium (DEAE-Sephacel, Sepharose CL-4B)
Work on B1 yielded a Kd (C1q) of 20 nM and a Kd (mannose-binding lectin) of 48 nM.
